Data from paper PMC6625990, “Structural underpinnings of Ric8A function as a G-protein α-subunit chaperone and guanine-nucleotide exchange factor” (Nature Communications, 2019).
Like-named read-outs stand apart in the source and are kept apart here. No end group written: not given here.

Assays:
Ric8A1–492 [1] = biological target: T1, Ric8A1–492 (Bos taurus, UniProt Q5E9J8); assay: DSF: thermal stabilization of Ric8A1–492 by Gαt C-terminal peptides; format: binding, bovine
T1 construct: His6 (N); made in house; host or cells: E. coli BL21(DE3)
T1 sequence (Q5E9J8 1-492): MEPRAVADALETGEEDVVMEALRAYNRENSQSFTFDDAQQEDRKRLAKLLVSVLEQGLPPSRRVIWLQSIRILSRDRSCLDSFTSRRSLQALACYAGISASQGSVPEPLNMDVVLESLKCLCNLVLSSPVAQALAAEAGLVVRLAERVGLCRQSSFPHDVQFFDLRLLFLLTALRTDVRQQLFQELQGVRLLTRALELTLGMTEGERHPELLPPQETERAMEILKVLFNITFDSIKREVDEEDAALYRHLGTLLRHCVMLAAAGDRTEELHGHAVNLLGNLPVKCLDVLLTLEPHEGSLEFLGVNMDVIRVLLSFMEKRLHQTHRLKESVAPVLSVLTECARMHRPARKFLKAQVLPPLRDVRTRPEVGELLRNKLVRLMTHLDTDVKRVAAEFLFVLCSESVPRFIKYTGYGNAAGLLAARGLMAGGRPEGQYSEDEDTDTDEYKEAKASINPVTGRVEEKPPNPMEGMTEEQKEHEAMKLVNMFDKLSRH
Protocol: Fig. 1 Interaction of Ric8A with the C-terminus of Gα. a Thermal denaturation, as determined by differential scanning fluorimetry (DSF), of 8.7 µM Ric8A1–492 in the absence (black) or presence of 50 µM Gαt340–350 (blue) or Gαt333–350 (red). RFU – relative fluorescence units. Average normalized curves are shown. The Tm values (°C) are shown as mean ± SD (n = 3). b Kinetics of association and dissociation for Ric8A1–492 and biotinylated Gαt333–350 coupled to a streptavidin biosensor as determined using BLI. Representative curves are shown.
Stabilities of Ric8A constructs with and without peptide ligands were assessed using differential scanning fluorimetry (DSF), in which an increase in fluorescence of the Sypro Orange dye is measured. Ric8A1–492, Ric8A1–452 and Ric8A1–426 in 20 mM Tris-HCl (pH 7.5) buffer containing 150 mM KCl, 5% glycerol, and 1 mM TCEP with and without peptide were used at a final concentration of 0.5 mg/ml and were supplemented with a 1000-fold dilution of Sypro Orange dye (Invitrogen). Temperature was increased at 1 °C/minute and fluorescence signals were recorded using real-time PCR (C1000 Touch thermal cycler, Bio Rad), with the cycler set to FRET mode and the excitation wavelength set at 450–490 nm and the emission wavelength at 560–580 nm.

Ric8A1–492 [2] = biological target: T1, Ric8A1–492; assay: BLI: biotinylated Gα C-terminal peptides (Gαt333–350, Gαs363–380, C1, C2) on streptavidin biosensor binding Ric8A1–492; set-up: species or system bovine; conditions: Octet RED96, N-terminally biotinylated peptide on streptavidin biosensor, 20 mM Tris, 150 mM KCl, 5% glycerol, 1 mM TCEP, 0.5 mg/ml BSA, pH 8.0, 26 °C, 1:1 binding model, mean ± SD, read-out: association constant (ka)
Protocol: An Octet RED96 system and streptavidin (SA)-coated biosensors (FortéBio, Menlo Park, CA) were used to measure association and dissociation kinetics for Gα peptides or the full-length Avi-tagged Gαt in relation to Ric8A1–492, Ric8A1–452, and Ric8A1–426. To obtain the Avi-tagged Gαt, Gαt was cloned into modified pET21a vector with the N-terminal His6-tag followed by the Avi tag and TEV cleavage site[59]. The Avi-tagged I340Q/N343H mutant of Gαt was prepared by QuikChange protocol. BL21(DE3) cells for expression of the Avi-tagged Gαt were grown in 2TY media supplemented with biotin (10 mg/liter), induced at OD600 of 0.6 with 50 µM IPTG and further grown overnight at 16 °C. Binding studies were performed in 20 mM Tris, 150 mM KCl, 5% glycerol, 1 mM TCEP, 0.5 mg/ml BSA, pH 8.0. […] For each concentration of Ric8A1–492, dissociation rate constant (kd) values were calculated from the corresponding dissociation phases of the curves. These kd values were used to calculate the association rate constant (ka) values from the association phases for each concentration according to the equation1 ka=kobserved-kd∕Ric8A1-492 The average ka and kd were calculated as means of the individual ka and kd values for all curves. Equilibrium dissociation constant KD was calculated as mean kd/mean ka. […]

Ric8A1–492 [3] = biological target: T1, Ric8A1–492; assay: SEC complex formation of Gαt C-terminal fusion proteins with Ric8A1–492; format: binding, bovine; conditions: size-exclusion chromatography elution profiles
Source text: The C-terminal 18-mer peptide of Gαi corresponding to Gαt333–350, was previously shown to bind to Ric8A[26]. To identify C-terminal constructs of Gα that are suitable for crystallization with Ric8A, we tested one in which the 11 C-terminal residues of Gαt were fused to the B1 domain of Streptococcal protein G (GB1-Gαt340–350) and a second in which the 24 C-terminal residues of Gαt were fused to MBP (MBP-Gαt327–350). For Ric8A, we used a construct that is truncated at the C-terminus (Ric8A1–492) and that had been reported to retain the full functionality of Ric8A[26].
MBP-Gαt327–350 was purified by Ni-NTA chromatography followed by SEC using a HiLoad 16/600 Superdex 200 pg column equilibrated with 20 mM Tris-HCl (pH 7.5) buffer containing 100 mM NaCl, 1 mM EDTA, and 2 mM TCEP. Ric8A1–492/MBP-Gαt327–350 complexes were prepared by mixing the proteins at a 1:1.5 molar ratio in 5 mM maltose and loading the mixture onto a HiLoad 16/600 Superdex 200 pg column equilibrated with 20 mM Tris-HCl (pH 7.5) buffer containing 150 mM KCl, 5% glycerol, and 1 mM TCEP.
75 KDa Peak 1 Peak 2 75 KDa Peak 1 Peak 2
Supplementary Figure 1. Ric8A1-492 forms complexes with GB1-tagged Gαt340-350 andMBP-taggedGαt333-350. […] (B) Peak fractions in A analyzed by SDS-PAGE. […] (D) Peak fractions in C analyzed by SDS-PAGE. […]

Ric8A = conditions: read-out: KD previously estimated; cited from earlier work
Ric8A1–452 = assay: DSF: thermal stabilization of Ric8A1–452 by Gαt333–350; format: binding, bovine; conditions: 9.1 µM Ric8A1–452, 50 µM peptide, mean ± SD
Protocol: Stabilities of Ric8A constructs with and without peptide ligands were assessed using differential scanning fluorimetry (DSF), in which an increase in fluorescence of the Sypro Orange dye is measured. […] Temperature was increased at 1 °C/minute and fluorescence signals were recorded using real-time PCR (C1000 Touch thermal cycler, Bio Rad), with the cycler set to FRET mode and the excitation wavelength set at 450–490 nm and the emission wavelength at 560–580 nm.

Ric8A1–492 [4] = biological target: T1, Ric8A1–492; assay: BLI: Avi-tagged I340Q/N343H mutant of Gαt binding Ric8A1–492; set-up: species or system bovine
Protocol: An Octet RED96 system and streptavidin (SA)-coated biosensors (FortéBio, Menlo Park, CA) were used to measure association and dissociation kinetics for Gα peptides or the full-length Avi-tagged Gαt in relation to Ric8A1–492, Ric8A1–452, and Ric8A1–426. To obtain the Avi-tagged Gαt, Gαt was cloned into modified pET21a vector with the N-terminal His6-tag followed by the Avi tag and TEV cleavage site[59]. The Avi-tagged I340Q/N343H mutant of Gαt was prepared by QuikChange protocol. BL21(DE3) cells for expression of the Avi-tagged Gαt were grown in 2TY media supplemented with biotin (10 mg/liter), induced at OD600 of 0.6 with 50 µM IPTG and further grown overnight at 16 °C. Binding studies were performed in 20 mM Tris, 150 mM KCl, 5% glycerol, 1 mM TCEP, 0.5 mg/ml BSA, pH 8.0. All steps were performed at 26 °C, with biosensors stirred into 0.2 ml of sample in each well at 1000 rpm, and at a data acquisition rate of 5.0 Hz. N-terminally biotinylated Gαt333–350, Gαs363–380, C1 peptide and C2 peptide were loaded onto SA sensors at a concentration of 0.05, 0.05, 0.005, and 0.01 mg/ml for 40–90 seconds. Data for association and dissociation phases of the assay were collected as shown in Fig. 1b and Supplementary Figs. 8, 11, 12, and 14. To correct for baseline drift and non-specific binding, reference sensors lacking bound Gα peptide were used in the BLI assays with Ric8A proteins at the highest concentrations. Kinetic data fitting was performed using FortéBio Data Analysis software 10.0. For each concentration of Ric8A1–492, dissociation rate constant (kd) values were calculated from the corresponding dissociation phases of the curves. These kd values were used to calculate the association rate constant (ka) values from the association phases for each concentration according to the equation1 ka=kobserved-kd∕Ric8A1-492 The average ka and kd were calculated as means of the individual ka and kd values for all curves. Equilibrium dissociation constant KD was calculated as mean kd/mean ka. Steady-state data fitting was performed using the GraphPad Prism 7 software with the equation for one site specific binding.
Supplementary Figure 13. (A) Kinetics of association and dissociation of Ric8A1-492 and the Avi-tagged I340Q/N343H mutant of Gαt coupled to a streptavidin biosensor as determined using BLI. Representative experiment is shown. (B) The steady-state binding curve. For experiments performed in […]
(1 picture or pasted object on this page, not shown here)

## DAVTDIIIKENLKDCGLF [Gαt333–350]
Ric8A1–492 [1]
  stabilization effect (Tm shift) on Ric8A1–492: ~ 9 °C
Ric8A1–492 [2]
  kon: 130000 ± 3e+09 M⁻¹ s⁻¹

## GB1-Gαt340–350: 11 C-terminal residues of Gαt fused to the B1 domain of Streptococcal protein G (IKENLKDCGLF; also: fused to GB1 (B1 domain of protein G), end not given here)
Ric8A1–492 [3]
  complex formation with Ric8A1–492 (in words): formed complexes with Ric8A1–492 at nearly 1:1 stoichiometry

## Gα C-terminus: C-terminal 18-mer peptide of Gαi previously shown to bind to Ric8A (ref 26) (DAVTDVIIKNNLKDCGLF; UniProt P63096 337-354, looked up, fragment)
Ric8A
  Kd: 12000 nM

## Gαt340–350: 11-mer C-terminal peptide of Gαt (IKENLKDCGLF)
Ric8A1–492 [1]; 8.7 µM Ric8A1–492, 50 µM peptide, mean ± SD (n = 3)
  Tm of Ric8A1–492 in the presence of peptide: 48.0 ± 0.3 °C
Ric8A1–492 [1]; source data, mean of 3 replicates
  mean Tm of Ric8A1-492 + peptide: 48 C
Ric8A1–492 [1]; source data, replicate 1
  Tm (C ) of Ric8A1-492 + peptide: 48.1 C
Ric8A1–492 [1]; source data, replicate 2
  Tm (C ) of Ric8A1-492 + peptide: 47.69 C
Ric8A1–492 [1]; source data, replicate 3
  Tm (C ) of Ric8A1-492 + peptide: 48.35 C
Ric8A1–452
  Tm of Ric8A1–452 in the presence of peptide: 55.75 °C

## I340Q/N343H: Avi-tagged double I340Q/N343H mutant of full-length Gαt
Ric8A1–492 [4]; BLI steady state, Avi-tagged mutant on streptavidin biosensor, mean ± SD, n = 3 (triplicate), read-out: KD for Ric8A1–492
  Kd: 2.3 ± 0.4 µM
Ric8A1–492 [4]; BLI, representative experiment (Suppl. Fig. 13B), read-out: KD, steady-state binding curve
  Kd: 2.6 µM
Ric8A1–492 [4]; Suppl Fig 13B BLI steady state, replicate 1, read-out: KD uM (stady state)
  Kd: 1.95 µM
Ric8A1–492 [4]; Suppl Fig 13B BLI steady state, replicate 2, read-out: KD uM (stady state)
  Kd: 2.3 µM
Ric8A1–492 [4]; Suppl Fig 13B BLI steady state, replicate 3, read-out: KD uM (stady state)
  Kd: 2.66 µM
Ric8A1–492 [4]; relative to Gαt
  decrease of affinity for Ric8A1–492: about 100 fold

## MBP-Gαt327–350: 24 C-terminal residues of Gαt fused to MBP (NVKFVFDAVTDIIIKENLKDCGLF; not fully specified (N-terminus); also: N-terminal fusion to modified MBP via AAAH linker, His6 tag)
Ric8A1–492 [3]
  complex formation with Ric8A1–492 (in words): formed complexes with Ric8A1–492 at nearly 1:1 stoichiometry
